{"source": "patent US9932367B2", "about": "“Modification of polypeptides” (BicycleRD Limited, priority 2013, dated 2018)", "origin": "cited, not measured here", "key": {"factor XIa (hfXIa)": {"biological_target": "factor XIa (hfXIa) (Homo sapiens, UniProt P03951)", "sequence (P03951 388-625 limits assumed)": "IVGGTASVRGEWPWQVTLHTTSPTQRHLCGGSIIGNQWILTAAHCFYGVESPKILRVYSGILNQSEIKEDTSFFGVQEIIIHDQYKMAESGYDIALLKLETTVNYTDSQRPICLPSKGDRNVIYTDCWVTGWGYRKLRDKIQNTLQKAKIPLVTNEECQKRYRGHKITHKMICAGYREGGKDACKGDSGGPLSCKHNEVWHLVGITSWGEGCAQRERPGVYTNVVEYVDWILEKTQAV", "sequence (P03951 19-387 partner limits assumed)": "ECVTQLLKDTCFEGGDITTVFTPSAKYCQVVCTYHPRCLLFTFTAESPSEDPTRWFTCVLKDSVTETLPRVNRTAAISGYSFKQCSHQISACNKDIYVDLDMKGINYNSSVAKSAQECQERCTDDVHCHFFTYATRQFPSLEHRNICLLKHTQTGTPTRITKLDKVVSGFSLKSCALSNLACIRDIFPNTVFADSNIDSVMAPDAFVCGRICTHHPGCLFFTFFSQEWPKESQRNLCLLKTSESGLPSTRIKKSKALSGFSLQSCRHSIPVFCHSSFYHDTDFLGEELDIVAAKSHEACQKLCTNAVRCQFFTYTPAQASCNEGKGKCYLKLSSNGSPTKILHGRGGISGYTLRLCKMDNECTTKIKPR", "conditions": "highest concentration tested (10 μM)"}, "human PK (hPK)": {"biological_target": "human PK (hPK) (Homo sapiens, UniProt P03952)", "sequence (P03952 391-638 limits assumed)": "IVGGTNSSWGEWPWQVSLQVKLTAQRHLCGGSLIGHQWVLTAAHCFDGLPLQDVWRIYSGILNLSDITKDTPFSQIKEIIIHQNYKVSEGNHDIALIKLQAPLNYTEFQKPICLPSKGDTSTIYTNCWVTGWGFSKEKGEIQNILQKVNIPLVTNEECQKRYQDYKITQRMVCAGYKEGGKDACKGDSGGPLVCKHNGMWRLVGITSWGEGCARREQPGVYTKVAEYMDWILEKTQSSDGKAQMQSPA", "sequence (P03952 20-390 partner limits assumed)": "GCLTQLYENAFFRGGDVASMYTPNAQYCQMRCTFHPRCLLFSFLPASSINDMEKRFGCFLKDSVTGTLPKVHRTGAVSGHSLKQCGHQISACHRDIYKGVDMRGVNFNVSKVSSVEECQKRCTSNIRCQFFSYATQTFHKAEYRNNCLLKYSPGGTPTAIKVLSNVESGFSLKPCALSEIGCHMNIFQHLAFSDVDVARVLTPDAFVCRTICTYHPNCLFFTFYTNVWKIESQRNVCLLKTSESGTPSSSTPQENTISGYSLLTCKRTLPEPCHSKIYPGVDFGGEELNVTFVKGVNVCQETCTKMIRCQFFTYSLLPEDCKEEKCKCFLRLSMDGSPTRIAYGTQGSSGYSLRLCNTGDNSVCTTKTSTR"}, "rat PK": {"biological_target": "rat PK (Rattus norvegicus, UniProt P14272)", "sequence (P14272 20-638)": "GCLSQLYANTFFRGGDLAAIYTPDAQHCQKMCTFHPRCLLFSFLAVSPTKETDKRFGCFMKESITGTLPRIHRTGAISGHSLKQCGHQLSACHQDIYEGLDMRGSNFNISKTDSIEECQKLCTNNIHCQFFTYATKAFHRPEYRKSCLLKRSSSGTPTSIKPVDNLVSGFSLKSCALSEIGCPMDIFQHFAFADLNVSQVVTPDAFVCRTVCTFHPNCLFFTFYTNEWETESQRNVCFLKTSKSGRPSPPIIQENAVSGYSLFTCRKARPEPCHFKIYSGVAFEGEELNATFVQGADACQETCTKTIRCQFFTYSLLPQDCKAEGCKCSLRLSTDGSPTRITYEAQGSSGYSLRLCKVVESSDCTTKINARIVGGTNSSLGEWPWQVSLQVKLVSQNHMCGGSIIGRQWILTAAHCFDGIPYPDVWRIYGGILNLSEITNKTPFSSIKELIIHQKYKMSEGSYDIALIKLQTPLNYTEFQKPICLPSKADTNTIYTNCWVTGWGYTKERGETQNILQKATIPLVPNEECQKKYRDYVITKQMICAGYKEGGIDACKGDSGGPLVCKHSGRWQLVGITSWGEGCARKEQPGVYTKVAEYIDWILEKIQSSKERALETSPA", "conditions": "highest concentration tested (10 μM)"}, "thrombin": {"biological_target": "thrombin (Homo sapiens, UniProt P00734)", "conditions": "highest concentration tested (10 μM)"}}, "note": "Starred links: 1 amine or outer side, 2 acyl side, 3 side chain; linkers in the order of their positions; H or OH if unused. Positions of bridges follow the written chain, without caps; N, C: chain ends. TBMB = c1c(C[*:1])cc(C[*:3])cc1C[*:2]"}
{"substance": "three cysteines containing peptide (H-ACSDRFRNCPADEALCG-NH2) (SEQ ID NO: 18) coupled with TBMB; inhibitor of human plasma kallikrein (linker 2-9-16 via TBMB) [PK15]", "values": [{"measurement": "inhibition of human factor XIa", "setting": "factor XIa (hfXIa)", "result": "did not inhibit"}, {"measurement": "Ki", "setting": "human PK (hPK)", "result": 3, "unit": "nM"}, {"measurement": "inhibition of rat PK", "setting": "rat PK", "result": "did not inhibit"}, {"measurement": "inhibition of thrombin", "setting": "thrombin", "result": "did not inhibit"}]}
